Common to all, as to assay: fluorescence anisotropy
The target of one series is T1, A3F (UniProt Q8IUX4).
T1 sequence: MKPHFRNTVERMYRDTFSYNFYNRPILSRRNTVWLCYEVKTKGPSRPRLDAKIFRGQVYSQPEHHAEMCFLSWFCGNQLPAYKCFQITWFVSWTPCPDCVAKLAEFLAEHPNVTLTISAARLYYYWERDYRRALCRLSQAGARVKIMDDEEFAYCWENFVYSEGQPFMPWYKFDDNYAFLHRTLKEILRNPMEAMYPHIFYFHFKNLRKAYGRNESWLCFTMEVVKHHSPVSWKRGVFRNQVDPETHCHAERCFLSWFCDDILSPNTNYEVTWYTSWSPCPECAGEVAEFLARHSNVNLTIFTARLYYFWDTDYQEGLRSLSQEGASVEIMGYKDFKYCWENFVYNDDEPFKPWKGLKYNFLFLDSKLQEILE
The settings on record: apparent Kd; 10 mM Mg2+; RT buffer: 50 mM Tris pH 7.4, 40 mM KCl, 10 mM MgCl2, 1 mM DTT; 10 nM F-labeled DNA; 21 C.

For a further series, the target named is T2, A3F CTD (UniProt Q8IUX4).
T2 sequence: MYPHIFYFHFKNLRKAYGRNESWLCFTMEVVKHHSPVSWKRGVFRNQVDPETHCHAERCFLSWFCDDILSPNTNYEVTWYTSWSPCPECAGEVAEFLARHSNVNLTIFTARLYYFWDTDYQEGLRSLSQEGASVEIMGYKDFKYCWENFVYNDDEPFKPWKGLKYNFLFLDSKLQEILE
The conditions noted are these: RT buffer: 50 mM Tris pH 7.4, 40 mM KCl, 10 mM MgCl2, 1 mM DTT; 10 nM F-labeled DNA; 21 C.

For a further series, the target named is T3, A3F NGM P191G (UniProt Q8IUX4).
T3 sequence: T1 sequence with P191G
The settings on record: RT buffer: 50 mM Tris pH 7.4, 40 mM KCl, 10 mM MgCl2, 1 mM DTT; 10 nM F-labeled DNA; 21 C.

Another series concerns the target T4, GST-A3F (UniProt Q8IUX4).
T4 sequence: T1 sequence
The conditions noted are these: RT buffer: 50 mM Tris pH 7.4, 40 mM KCl, 10 mM MgCl2, 1 mM DTT; 10 nM F-labeled DNA; 21 C.

Numbering of substitutions follows the chain as printed. pKd: −log10 of the molar value.

Broadly, the pKd is the negative decadic logarithm of the Kd, by convention in mol/L. On to “GAATATAGTTTTTAGTTCAAAGTAAGTGAAGATAATTTAGAGAGTTGTAATGTGATATATGTGTATGAAAGATATAAGATTCAAAGAGTAAAGTTGTTAATGTGTGTAGATATGTTAA [A3F - 63 (TTC) (118 nt)]”, for which the pKd was 7.70 with A3F, 6.54 with A3F CTD, 6.92 with A3F NGM P191G and 7.34 with GST-A3F.

Source of the values: paper PMC3961392.
